Measured values from patent publication US20140295512A1, “Ketol-Acid Reductoisomerases With Improved Performance Properties” (CALIFORNIA INSTITUTE OF TECHNOLOGY, priority 2011, published 2014).
Residue numbers refer to the chain shown, from its start. Names and notes keep the numbering of the source. Like-named read-outs stand apart in the source and are kept apart here.

B1: Se1_KARI^1AA10: S. exigua KARI variant S61C, S63D, I95T (protein, UniProt D0WGK0 1-342, looked up, variant S61C S63D I95T)
Ketol-acid reductoisomerase …: MSVKTKEKEMAVTILYEQDVDPKVIQGLKVGIIGYGSQGHAHALNLMDSGVDVRVGLREGCSDWKTAEEAGLKVTDMDTAAEEADVIMVLVPDETQPKVYQEHIAAHLKAGNTLAFAHGFNIHYGYIVPPEDVNVIMCAPKGPGHIVRRQFTEGSGVPDLACVQQDATGNAWDIVLSYCWGVGGARSGIIKATFAEETEEDLFGEQAVLCGGLVELVKAGFETLTEAGYPPELAYFECYHEMKMIVDLMYESGIHFMNYSISNTAEYGEYYAGPKVINEQSREAMKEILKRIQDGSFAQEFVDDCNNGHKRLLEQREAINTHPIETTGAQIRSMFSWIKKED
B2: S63R: Slackia KARI variant with residue S63 mutated to R (protein, UniProt D0WGK0 1-342, looked up, variant S63R)
Ketol-acid reductoisomerase …: B1 Ketol-acid reductoisomerase … with C61S, D63R, T95I
B3: Se1_NKR^10C2-his6: S. exigua KARI variant R58P, S61C, S62A, S63D, I95T (protein, UniProt D0WGK0 1-342, looked up, variant R58P S61C S62A S63D I95T)
Ketol-acid reductoisomerase …: B1 Ketol-acid reductoisomerase … with R58P, S62A
modifications: His6 tag
notes: S. exigua KARI variant R58P, S61C, S62A, S63D, I95T
B4: S63H: Slackia KARI variant with residue S63 mutated to H (protein, UniProt D0WGK0 1-342, looked up, variant S63H)
Ketol-acid reductoisomerase …: B1 Ketol-acid reductoisomerase … with C61S, D63H, T95I
B5: S63E: Slackia KARI variant with residue S63 mutated to E (protein, UniProt D0WGK0 1-342, looked up, variant S63E)
Ketol-acid reductoisomerase …: B1 Ketol-acid reductoisomerase … with C61S, D63E, T95I
B6: Se1_KARI^EA8-his6: S. exigua KARI variant L57S (protein, UniProt D0WGK0 1-342, looked up, variant L57S)
Ketol-acid reductoisomerase …: B1 Ketol-acid reductoisomerase … with L57S, C61S, D63S, T95I
modifications: His6 tag
notes: S. exigua KARI variant L57S
B7: Se1_NKR^2E8-his6: S. exigua KARI variant R58P, S61C, S62P, S63D, I95T (protein, UniProt D0WGK0 1-342, looked up, variant R58P S61C S62P S63D I95T)
Ketol-acid reductoisomerase …: B1 Ketol-acid reductoisomerase … with R58P, S62P
modifications: His6 tag
notes: S. exigua KARI variant R58P, S61C, S62P, S63D, I95T
B8: Se1_KARI^GE11-his6: S. exigua KARI variant G60V (protein, UniProt D0WGK0 1-342, looked up, variant G60V)
Ketol-acid reductoisomerase …: B1 Ketol-acid reductoisomerase … with G60V, C61S, D63S, T95I
modifications: His6 tag
notes: S. exigua KARI variant G60V
B9: Se1_KARI^EE1-his6: S. exigua KARI variant L57R (protein, UniProt D0WGK0 1-342, looked up, variant L57R)
Ketol-acid reductoisomerase …: B1 Ketol-acid reductoisomerase … with L57R, C61S, D63S, T95I
modifications: His6 tag
notes: S. exigua KARI variant L57R
B10: Se1_KARI^CD10-his6: S. exigua KARI variant Y35H (protein, UniProt D0WGK0 1-342, looked up, variant Y35H)
Ketol-acid reductoisomerase …: B1 Ketol-acid reductoisomerase … with Y35H, C61S, D63S, T95I
modifications: His6 tag
notes: S. exigua KARI variant Y35H

Assays:
[1] = KARI assay of purified S. exigua KARI and variants with NADH (Examples 6-9); assay type: biochemical; conditions: for U/mg NADH (specific activity): cofactor NADH; for Km: read-out: Km for cofactor NADH; for Ratio NADH/NADPH (U/mg): specific activity ratio
Description: (§1) S. exigua KARI activity or activities of its variants were assayed kinetically by monitoring the decrease in NADPH or NADH concentration by measuring the change in absorbance at 340 nm. An assay buffer was prepared containing 100 mM potassium phosphate pH 7.0, 1 mM DTT, 2.5 mM (S)-2-acetolactate, and 10 mM MgCl2 (final concentrations in the 1-mL assay, accounting for dilution with enzyme and cofactor). Fifty μL purified enzyme and 930 μL of the assay buffer were placed into a 1-mL cuvette. The reaction was initiated by addition of 20 μL NADPH or NADH (200 μM final concentration) for a general activity assay. Michaelis-Menten constants of the cofactors were determined with varying concentrations of NADPH (200-12 μM final) or NADH (200-6 μM final).

[2] = KARI assay of purified S. exigua KARI and variants with NADPH (Examples 6-9); assay type: biochemical; conditions: for U/mg NADPH (specific activity): cofactor NADPH; for Km: read-out: Km for cofactor NADPH
Description: as §1

Row | Molecule | kcat NADH [1] | kcat/Km ratio NADH/NADPH (cofactor specificity) [1] | U/mg NADH (specific activity) [1] | Km [1] | Ratio NADH/NADPH (U/mg) [1] | kcat NADPH [2] | U/mg NADPH (specific activity) [2] | Km [2] | also measured
1 | B1 | 0.8 s⁻¹ | 7.1 | 0.32 U/mg | 62 µM | 1.2 | 0.67 s⁻¹ | 0.27 U/mg | 367 µM | NADH KM value, fold increased versus wild-type [1]: 1.3 fold; kcat with NADH, fold increase versus wild-type [1]: 2 fold; U/mg NADH (specific activity) ([1]; listed as 1AA10): 0.8 U/mg; kcat/Km ratio NADH/NADPH (cofactor specificity) ([1]; listed as Se1_KARI^1AA10-his6): 7; NADPH KM value, fold increased versus wild-type/parent [2]: at least 367 fold; kcat with NADPH, fold decreased versus wild-type [2]: 1.2 fold; NADPH KM value, fold increased versus wild-type/parent ([2]; listed as Se1_KARI^1AA10-his6): > 367 fold
2 | B2 | – | – | – | – | 3.7 | – | – | – | –
3 | B3 | 0.27 s⁻¹ | 14 | 0.11 U/mg | 250 µM | 3.4 | 0.08 s⁻¹ | 0.032 U/mg | > 1000 µM | NADPH-dependent activity (in words) [2]: virtually abolished
4 | B4 | – | – | – | – | 4 | – | – | – | –
5 | B5 | – | – | – | – | 9 | – | – | – | –
6 | B6 | – | – | 0.19 U/mg | – | 0.76 | – | 0.25 U/mg | – | –
7 | B7 | 0.4 s⁻¹ | 46 | 0.16 U/mg | 87 µM | 3.6 | 0.1 s⁻¹ | 0.044 U/mg | > 1000 µM | NADH KM value, fold increased versus wild-type [1]: 2 fold; NADPH-dependent activity (in words) [2]: virtually abolished
8 | B8 | 1 s⁻¹ | – | 0.4 U/mg | – | 0.48 | 2 s⁻¹ | 0.8 U/mg | – | U/mg NADH (specific activity) ([1]; listed as Se1_KARI^GE11): 0.40 U/mg; Ratio NADH/NADPH (U/mg) ([1]; listed as Se1_KARI^GE11): 0.50
9 | B9 | – | – | 0.06 U/mg | – | 1.58 | – | 0.04 U/mg | – | –
10 | B10 | – | – | 0.13 U/mg | – | 0.68 | – | 0.19 U/mg | – | –
